According to IntAct's records for PubMed 24358019:

B1: RNA polymerase sigma factor RpoH (Escherichia coli (strain K12)), P0AGB3 (parent)
chain: MTDKMQSLALAPVGNLDSYIRAANAWPMLSADEERALAEKLHYHGDLEAAKTLILSHLRFVVHIARNYAGYGLPQADLIQEGNIGLMKAVRRFNPEVGVRLVSFAVHWIKAEIHEYVLRNWRIVKVATTKAQRKLFFNLRKTKQRLGWFNQDEVEMVARELGVTSKDVREMESRMAAQDMTFDLSSDDDSDSQPMAPVLYLQDKSSNFADGIEDDNWEEQAANRLTDAMQGLDERSQDIIRARWLDEDNKSTLQELADRYGVSAERVRQLEKNAMKKLRAAIEA
partner: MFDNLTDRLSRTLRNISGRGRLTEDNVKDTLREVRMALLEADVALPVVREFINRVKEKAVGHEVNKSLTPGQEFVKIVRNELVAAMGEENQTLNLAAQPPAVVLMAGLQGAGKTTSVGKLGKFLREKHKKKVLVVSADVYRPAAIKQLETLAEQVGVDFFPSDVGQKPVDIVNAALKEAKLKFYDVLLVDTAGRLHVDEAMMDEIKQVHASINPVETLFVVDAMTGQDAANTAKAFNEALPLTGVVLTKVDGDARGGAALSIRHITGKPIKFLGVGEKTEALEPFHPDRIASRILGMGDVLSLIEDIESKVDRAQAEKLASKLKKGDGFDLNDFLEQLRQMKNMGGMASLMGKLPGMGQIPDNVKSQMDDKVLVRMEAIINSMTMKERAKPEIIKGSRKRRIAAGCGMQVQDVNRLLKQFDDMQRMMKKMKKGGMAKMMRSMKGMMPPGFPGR

Variants of: B1
Conditions: with srp54_ecoli ffh

| Variant | effect of a mutation on the interaction |
| --- | --- |
| MTDKMQSLALAPVGNLDSYIRAANAWPMLSADEERALAEKLHYHGDLEAAKTLNLSHLRFVVHIARNYAGYGLPQADLIQEGNIGLMKAVRRFNPEVGVRLVSFAVHWIKAEIHEYVLRNWRIVKVATTKAQRKLFFNLRKTKQRLGWFNQDEVEMVARELGVTSKDVREMESRMAAQDMTFDLSSDDDSDSQPMAPVLYLQDKSSNFADGIEDDNWEEQAANRLTDAMQGLDERSQDIIRARWLDEDNKSTLQELADRYGVSAERVRQLEKNAMKKLRAAIEA [I54N] | decreasing interaction strength |
